In US20120077731A1 (Ablynx, published 2012):

What was measured:
[1] = molecular target: T1, Human membrane IL-6R on cells (human, UniProt P08887 20-468); experiment: cell-based or functional assay
T1 sequence (looked up): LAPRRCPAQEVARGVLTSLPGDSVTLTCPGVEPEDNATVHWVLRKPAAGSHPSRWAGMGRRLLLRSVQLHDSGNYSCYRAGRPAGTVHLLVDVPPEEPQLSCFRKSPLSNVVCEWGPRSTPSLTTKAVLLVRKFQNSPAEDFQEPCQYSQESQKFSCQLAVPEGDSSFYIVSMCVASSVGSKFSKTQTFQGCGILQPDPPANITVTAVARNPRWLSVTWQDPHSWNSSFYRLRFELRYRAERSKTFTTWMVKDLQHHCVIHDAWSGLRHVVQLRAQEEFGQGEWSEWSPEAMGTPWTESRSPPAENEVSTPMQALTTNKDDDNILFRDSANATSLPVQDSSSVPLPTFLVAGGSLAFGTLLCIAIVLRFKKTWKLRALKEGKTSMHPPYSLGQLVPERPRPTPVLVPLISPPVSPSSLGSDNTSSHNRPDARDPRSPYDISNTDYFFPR

CLF-1/CLC = molecular target: T2, CLF-1/CLC (UniProt O75462 38-422; Q9UBD9 28-225, limits assumed); experiment: competitive binding ELISA, similar setup (results not shown)
T2 sequence (looked up) 1: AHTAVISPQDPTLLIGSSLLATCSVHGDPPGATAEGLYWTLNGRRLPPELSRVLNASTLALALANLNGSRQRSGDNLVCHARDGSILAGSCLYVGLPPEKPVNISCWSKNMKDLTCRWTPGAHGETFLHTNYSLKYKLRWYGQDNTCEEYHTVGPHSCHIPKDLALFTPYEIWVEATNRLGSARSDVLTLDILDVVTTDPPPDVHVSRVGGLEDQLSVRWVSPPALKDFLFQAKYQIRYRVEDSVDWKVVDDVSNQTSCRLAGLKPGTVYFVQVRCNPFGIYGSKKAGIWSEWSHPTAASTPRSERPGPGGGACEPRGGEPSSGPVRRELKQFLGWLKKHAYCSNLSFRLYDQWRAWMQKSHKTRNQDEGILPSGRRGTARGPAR
T2 sequence (looked up) 2: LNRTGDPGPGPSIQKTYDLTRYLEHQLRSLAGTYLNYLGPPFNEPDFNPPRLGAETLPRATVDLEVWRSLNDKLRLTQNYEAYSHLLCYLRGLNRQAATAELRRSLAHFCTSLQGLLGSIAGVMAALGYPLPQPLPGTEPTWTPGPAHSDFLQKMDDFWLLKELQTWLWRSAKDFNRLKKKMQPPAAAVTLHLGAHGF

IL-27B = molecular target: T3, IL-27B (UniProt Q14213 21-229, limits assumed); experiment: as above
T3 sequence (looked up): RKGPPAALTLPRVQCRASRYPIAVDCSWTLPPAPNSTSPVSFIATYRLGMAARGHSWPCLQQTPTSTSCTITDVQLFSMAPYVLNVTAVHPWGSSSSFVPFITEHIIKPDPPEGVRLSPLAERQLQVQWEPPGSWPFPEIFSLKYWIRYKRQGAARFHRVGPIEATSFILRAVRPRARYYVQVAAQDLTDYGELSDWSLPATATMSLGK

IL12-p40 = molecular target: T4, IL12-p40 (UniProt P29460 23-328); experiment: as above
T4 sequence (looked up): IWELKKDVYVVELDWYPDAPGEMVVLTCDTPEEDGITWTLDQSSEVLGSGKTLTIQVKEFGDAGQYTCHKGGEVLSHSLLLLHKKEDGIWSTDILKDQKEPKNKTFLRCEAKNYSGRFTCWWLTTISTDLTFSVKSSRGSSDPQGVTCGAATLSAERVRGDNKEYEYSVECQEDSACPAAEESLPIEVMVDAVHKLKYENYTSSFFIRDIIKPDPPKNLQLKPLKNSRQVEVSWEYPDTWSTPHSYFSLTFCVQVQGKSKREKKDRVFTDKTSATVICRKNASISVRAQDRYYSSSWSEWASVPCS

LIF-R = molecular target: T5, LIF-R (UniProt P42702 45-833, limits assumed); experiment: competitive binding ELISA: IL6R20A11 (0.05 nM) pre-incubated with a series of the receptor; free IL6R20A11 captured on sIL-6R and detected via anti-His
T5 sequence (looked up): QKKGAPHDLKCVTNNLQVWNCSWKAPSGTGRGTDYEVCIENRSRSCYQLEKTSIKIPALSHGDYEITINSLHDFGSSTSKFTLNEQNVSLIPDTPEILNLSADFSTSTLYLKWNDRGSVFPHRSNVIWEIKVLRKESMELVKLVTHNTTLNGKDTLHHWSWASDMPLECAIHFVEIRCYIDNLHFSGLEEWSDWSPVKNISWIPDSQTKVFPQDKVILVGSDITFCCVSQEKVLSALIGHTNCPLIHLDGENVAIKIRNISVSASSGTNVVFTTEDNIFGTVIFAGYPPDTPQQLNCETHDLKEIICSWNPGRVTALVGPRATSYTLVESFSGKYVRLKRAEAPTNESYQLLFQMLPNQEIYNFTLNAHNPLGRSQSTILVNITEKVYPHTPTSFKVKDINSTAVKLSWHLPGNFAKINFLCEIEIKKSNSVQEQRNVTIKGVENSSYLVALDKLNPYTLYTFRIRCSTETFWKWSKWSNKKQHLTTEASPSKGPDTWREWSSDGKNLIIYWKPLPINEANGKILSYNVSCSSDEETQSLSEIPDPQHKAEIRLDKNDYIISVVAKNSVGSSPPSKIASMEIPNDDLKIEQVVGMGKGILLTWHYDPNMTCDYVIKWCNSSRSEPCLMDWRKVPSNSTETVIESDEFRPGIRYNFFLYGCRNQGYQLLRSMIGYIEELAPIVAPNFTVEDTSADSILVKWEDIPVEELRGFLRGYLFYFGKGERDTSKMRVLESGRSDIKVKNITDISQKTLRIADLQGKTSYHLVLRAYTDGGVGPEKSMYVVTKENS

IC50 (nM), TF-1 proliferation at 5000 IU/mL IL-6 [1]: 15.2 nM
binding result (CLF-1/CLC): no binding (tested: 100 nM)
binding result (IL-27B): no binding (tested: 100 nM)
binding result (IL12-p40): no binding (tested: 100 nM)
binding result (LIF-R): no binding (tested: 5 nM (log conc 0.7))
B1: PMP20A11 (VHH)
VHH: EVQLVESGGGLVQPGGSLRLSCAASGSVFKINVMAWYRQAPGKGRELVAGIISGGSTSYADSVKGRFTISRDNAKNTLYLQMNSLRPEDTAVYYCAFITTESDYDLGRRYWGQGTLVTVSS
notes: also called IL6R20A11; IL6R300; not shown: c-myc and (His)6 tags
